PMC10963267 (2023)

Experiments:
Experiment in all cases: BLI
IL70096 = biological target: IL70096
IL70094 = biological target: IL70094
IL70099 = biological target: IL70099
IL70095 = biological target: IL70095
IL70092 = biological target: IL70092
IL70104 = biological target: IL70104
IL70109 = biological target: IL70109
IL70103 = biological target: IL70103
IL70108 = biological target: IL70108
IL70097 = biological target: IL70097
IL70101 = biological target: IL70101
IL70110 = biological target: IL70110
IL70106 = biological target: IL70106
IL70098 = biological target: IL70098
IL70107 = biological target: IL70107
IL70093 = biological target: IL70093

B1: human interleukin-7 (huIL-7), biotinylated (ligand)
chain: DCDIEGKDGKQYESVLMVSIDQLLDSMKEIGSNCLNNEFNFFKRHICDANKEGMFLFRAARKLRQFLKMNSTGDFDLHLLKVSEGTTILLNCTGQVKGRKPAALGEAQPTKSLEENKSLKEQKKLNDLCFLKRLLQEIKTCWNKILMGTKEH
modifications: biotin
Kd (IL70096): 0.708 nM | Kd (IL70094): 0.754 nM | Kd (IL70099): 1.53 nM | Kd (IL70095): 0.429 nM | Kd (IL70092): 0.909 nM | Kd (IL70104): 2.64 nM | Kd (IL70109): 1.48 nM | Kd (IL70103): 0.657 nM | Kd (IL70108): 2.55 nM | Kd (IL70097): 1.79 nM | Kd (IL70101): 1.14 nM | Kd (IL70110): 0.824 nM | Kd (IL70106): 2.92 nM | Kd (IL70098): 0.52 nM | Kd (IL70107): 2.94 nM | Kd (IL70093): 0.525 nM
